Reference: publication PMC11018839, “ANKFY1 bridges ATG2A-mediated lipid transfer from endosomes to phagophores” (Cell Discovery, 2024)

Target: T1, purified Flag-ATG2A-His protein (human, UniProt Q2TAZ0 1-1938)
T1 construct: ATG2A, human; Flag-ATG2A-His with a C-terminal His tag; not shown: His tag, C-terminal, kept
Assay: liposome co-flotation; 100 nm liposomes with 5% PI3P (2% Rhod-PE, 30% POPE, 63% DOPC), 1 mM lipids, incubated with 4.28 uM ANKFY1, 0.5 uM ATG2A or both at 37 °C for 1 h; 50 mM HEPES pH 8.0, 300 mM NaCl, 1 mM TCEP; floated on a histodenz gradient; topmost fraction analysed by SDS-PAGE and western blot
Details: both partners purified

T1 sequence (Q2TAZ0 whole entry): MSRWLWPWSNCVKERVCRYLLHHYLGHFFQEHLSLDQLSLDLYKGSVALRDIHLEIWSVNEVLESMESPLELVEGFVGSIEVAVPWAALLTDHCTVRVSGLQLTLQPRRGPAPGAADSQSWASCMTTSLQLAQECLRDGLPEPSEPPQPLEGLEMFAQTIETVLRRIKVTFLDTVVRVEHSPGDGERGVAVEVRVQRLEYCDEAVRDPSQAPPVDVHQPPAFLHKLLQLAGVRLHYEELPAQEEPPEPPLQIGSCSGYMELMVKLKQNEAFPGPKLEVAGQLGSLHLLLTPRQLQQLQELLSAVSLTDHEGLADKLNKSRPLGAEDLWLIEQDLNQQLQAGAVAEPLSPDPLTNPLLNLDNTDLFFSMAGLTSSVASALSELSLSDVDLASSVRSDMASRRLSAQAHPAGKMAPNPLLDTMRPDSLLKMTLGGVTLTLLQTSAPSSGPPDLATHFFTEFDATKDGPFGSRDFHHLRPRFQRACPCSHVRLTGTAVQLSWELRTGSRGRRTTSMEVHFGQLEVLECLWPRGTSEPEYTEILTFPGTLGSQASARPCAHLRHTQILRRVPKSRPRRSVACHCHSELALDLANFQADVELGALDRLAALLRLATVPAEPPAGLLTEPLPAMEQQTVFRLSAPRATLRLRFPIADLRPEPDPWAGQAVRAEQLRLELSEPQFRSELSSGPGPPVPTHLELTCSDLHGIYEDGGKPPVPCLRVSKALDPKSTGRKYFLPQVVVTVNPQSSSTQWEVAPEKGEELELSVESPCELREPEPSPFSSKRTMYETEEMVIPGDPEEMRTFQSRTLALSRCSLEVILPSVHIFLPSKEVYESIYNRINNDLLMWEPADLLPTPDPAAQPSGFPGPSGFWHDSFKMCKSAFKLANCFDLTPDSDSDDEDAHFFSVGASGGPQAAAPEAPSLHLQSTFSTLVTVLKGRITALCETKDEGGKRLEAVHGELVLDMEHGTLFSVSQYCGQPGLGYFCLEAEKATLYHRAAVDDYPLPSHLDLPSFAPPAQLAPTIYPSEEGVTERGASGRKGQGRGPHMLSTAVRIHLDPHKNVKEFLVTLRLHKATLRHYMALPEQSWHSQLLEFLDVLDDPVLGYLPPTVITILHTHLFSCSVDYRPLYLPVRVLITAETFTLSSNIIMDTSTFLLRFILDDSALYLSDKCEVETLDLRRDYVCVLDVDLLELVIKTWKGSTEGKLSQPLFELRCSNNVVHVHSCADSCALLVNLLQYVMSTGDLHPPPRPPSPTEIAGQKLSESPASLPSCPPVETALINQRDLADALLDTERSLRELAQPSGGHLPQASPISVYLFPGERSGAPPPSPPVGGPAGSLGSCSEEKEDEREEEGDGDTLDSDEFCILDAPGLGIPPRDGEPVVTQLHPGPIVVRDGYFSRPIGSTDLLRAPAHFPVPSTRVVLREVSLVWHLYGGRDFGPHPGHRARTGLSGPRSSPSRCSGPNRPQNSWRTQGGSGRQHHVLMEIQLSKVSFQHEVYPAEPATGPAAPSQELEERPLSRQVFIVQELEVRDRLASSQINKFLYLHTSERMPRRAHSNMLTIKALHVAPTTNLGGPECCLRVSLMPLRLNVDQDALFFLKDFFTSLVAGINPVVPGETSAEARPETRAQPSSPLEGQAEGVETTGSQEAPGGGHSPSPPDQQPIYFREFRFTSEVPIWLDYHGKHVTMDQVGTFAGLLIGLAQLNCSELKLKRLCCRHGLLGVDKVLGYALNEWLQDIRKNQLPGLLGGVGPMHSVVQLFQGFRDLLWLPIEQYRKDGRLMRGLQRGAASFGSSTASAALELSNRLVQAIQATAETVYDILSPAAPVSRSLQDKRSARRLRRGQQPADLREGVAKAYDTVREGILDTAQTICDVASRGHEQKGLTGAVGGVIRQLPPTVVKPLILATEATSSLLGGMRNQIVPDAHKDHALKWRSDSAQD

B1: purified Flag-ANKFY1 full-length protein (natural protein, human, UniProt Q9P2R3 1-1169, looked up)
chain: MAEEEVAKLEKHLMLLRQEYVKLQKKLAETEKRCALLAAQANKESSSESFISRLLAIVADLYEQEQYSDLKIKVGDRHISAHKFVLAARSDSWSLANLSSTKELDLSDANPEVTMTMLRWIYTDELEFREDDVFLTELMKLANRFQLQLLRERCEKGVMSLVNVRNCIRFYQTAEELNASTLMNYCAEIIASHWDDLRKEDFSSMSAQLLYKMIKSKTEYPLHKAIKVEREDVVFLYLIEMDSQLPGKLNEADHNGDLALDLALSRRLESIATTLVSHKADVDMVDKSGWSLLHKGIQRGDLFAATFLIKNGAFVNAATLGAQETPLHLVALYSSKKHSADVMSEMAQIAEALLQAGANPNMQDSKGRTPLHVSIMAGNEYVFSQLLQCKQLDLELKDHEGSTALWLAVQHITVSSDQSVNPFEDVPVVNGTSFDENSFAARLIQRGSHTDAPDTATGNCLLQRAAGAGNEAAALFLATNGAHVNHRNKWGETPLHTACRHGLANLTAELLQQGANPNLQTEEALPLPKEAASLTSLADSVHLQTPLHMAIAYNHPDVVSVILEQKANALHATNNLQIIPDFSLKDSRDQTVLGLALWTGMHTIAAQLLGSGAAINDTMSDGQTLLHMAIQRQDSKSALFLLEHQADINVRTQDGETALQLAIRNQLPLVVDAICTRGADMSVPDEKGNPPLWLALANNLEDIASTLVRHGCDATCWGPGPGGCLQTLLHRAIDENNEPTACFLIRSGCDVNSPRQPGANGEGEEEARDGQTPLHLAASWGLEETVQCLLEFGANVNAQDAEGRTPIHVAISSQHGVIIQLLVSHPDIHLNVRDRQGLTPFACAMTFKNNKSAEAILKRESGAAEQVDNKGRNFLHVAVQNSDIESVLFLISVHANVNSRVQDASKLTPLHLAVQAGSEIIVRNLLLAGAKVNELTKHRQTALHLAAQQDLPTICSVLLENGVDFAAVDENGNNALHLAVMHGRLNNIRVLLTECTVDAEAFNLRGQSPLHILGQYGKENAAAIFDLFLECMPGYPLDKPDADGSTVLLLAYMKGNANLCRAIVRSGARLGVNNNQGVNIFNYQVATKQLLFRLLDMLSKEPPWCDGSYCYECTARFGVTTRKHHCRHCGRLLCHKCSTKEIPIIKFDLNKPVRVCNICFDVLTLGGVS
notes: ANKFY1, human, full length (ANKFY1-FL), N-terminal Flag tag, pCDNA4-TO vector; also called ANKFY1-FL; ANKFY1-Flag; source: 293S cells, purified (anti-Flag M2 resin, eluted with 3x Flag peptide); not shown: Flag, N-terminal, kept
Does B1 bind?
Result: binds
